Laboratory results from the supplement of paper PMC10567573.

B1: TMEM106C (parent)
chain: SEQLVNFTGKAEMGGPFSYVYFFC

Variants of: B1
Assay: protein stability index of a GFP-peptide fusion (GPS, HEK-293T) (PSI 1-6); higher = more stable
Conditions: c terminus: a fixed tail appended
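Further: lentivirally expressed fusions sorted by FACS into six bins by GFP to DsRed ratio, PSI derived from sequencing read proportions per bin multiplied by bin number.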

Protein stability index of substitutions, site by site:
S18: E 2.23; Y 2.04; T 2.31; M 4.17; F 3.04; V 4.08; R 3.37; H 2.35; P 2.26; K 2.25; A 2.29; G 1.88; Q 2.45; W 1.72; I 3.11; L 3.3; N 3; C 2.74
K10: T 3.48; S 3.56; G 4.37; R 2.99; P 2.32; N 2.25; Q 3.07; E 2.94; Y 2.5; L 1.94; A 2.02; V 3.02; I 3.15; D 2.33; C 2.55; F 2.92; H 2.51; W 3.18; M 2.72
Q3: M 2.52; N 3.22; K 2.79; D 3.39; A 1.85; S 2.73; F 2.76; L 3.56; V 3.16; I 2.94; H 3.21; T 2.79; E 2.57; Y 2.99; W 3.02; C 2.98; G 3.44; R 2.4
E12: Q 4.32; K 4.11; F 2.67; W 3.46; H 3.66; C 2.67; G 2.96; D 2.46; N 2.69; P 3.12; V 2.79; M 3.74; R 3.52; I 2.98; Y 3.17; S 2.79; T 2.51; A 1.37; L 2.07
V5: I 3.42; R 2.8; E 1.79; T 1.81; Q 2.89; W 4.3; H 2.52; L 3.05; M 2.83; F 2.76; D 3.94; G 1.26; K 3.06; C 2.67; Y 3.6; A 2.95; P 4.22; N 2.58; S 2.45
L4: K 3.49; W 2.2; E 2.62; P 2.07; Q 1.93; S 2.11; T 3.41; Y 3.31; C 1.94; D 2.39; I 2.74; A 2.54; N 3.12; H 4.32; F 2.75
F7: R 2.32; S 2.03; V 2.45; I 2.32; D 2.32; G 1.68; T 3.16; N 2.37; K 2.69; L 3.36; Q 1.74; P 3.16; M 1.98; C 3.4; H 2.79; W 2.51; E 4.73; Y 3.39
P16: E 2.88; W 2.94; I 2.04; F 3.14; T 2.4; D 3.16; R 3.05; H 2.25; K 2.98; M 3.03; S 2.1; N 3.26; G 2.05; Q 2.58; C 3.95; V 2.47; Y 3.76; A 2.25; L 3.79
Y19: K 3.22; G 2.97; P 1.74; H 3.66; T 2.33; L 2.89; C 2.1; I 2.51; F 2.11; A 2; V 3.9; E 1.93; Q 2.12; N 1.97; D 1.91; M 3.35; W 2.46; R 2.1
G14: L 3; C 3.15; R 2.42; K 2.59; P 3.48; I 3.83; A 3.63; W 3.4; F 3.25; T 3.09; D 3.46; N 2.23; M 2.79; E 2.86; S 3.33; Y 3.75; Q 2.52; V 3.73; H 2.88
G9: W 2.95; M 2.47; I 2.8; Y 3.05; H 3.07; C 2.05; S 2.97; V 3.09; T 3.27; K 2.89; A 3.2; F 2.01; E 2.46; Q 2.71; P 2.28; L 2.21; N 3.19; D 2.19; R 3.01
T8: H 3.31; V 2.92; W 2.44; A 3.06; F 1.62; S 2.29; M 2.02; E 2.29; L 4.14; R 2.65; P 2.54; I 3.12; Q 3.6; N 2.63; Y 3.78; C 3.08; G 2.76; K 2.4
G15: I 3.9; W 2.36; S 2.85; C 2.89; E 3.6; Q 2.59; M 3.83; A 2.8; N 2.23; H 3.96; D 2.33; V 2.76; R 2.79; F 3.12; K 2.63; T 2.73; Y 2.89; L 2.52; P 4.29
M13: H 2.64; A 2.1; R 2.54; L 2.2; W 2.15; Q 2.02; N 2.69; G 2.77; K 2.34; I 3.54; P 2.52; V 3.14; Y 3.13; E 1.54; C 2.52; T 2.27; F 2.15; D 3.13; S 2.16
F17: R 3.07; I 2.47; N 2.93; D 1.95; P 1.84; T 2.41; S 2.5; V 2.46; M 3.54; Y 2.21; C 2.79; A 2.55; K 2.42; H 2.22; E 1.97; W 3.31; Q 2.77; G 2.28; L 3.08
A11: W 2.75; G 2.41; E 3.33; K 3.7; N 2.66; M 2.61; R 2.14; L 2.92; V 3.08; P 4.32; I 2.16; F 3.61; D 2.64; Q 3.25; S 2.17; Y 2.47; H 2.39; C 2; T 3.55
V20: D 1.76; F 2.17; C 3.09; I 2.7; E 2.13; A 2.9; G 2.35; H 2.53
N6: D 2.88; V 2.18; Q 2.39; G 3.12; L 1.38; A 2.28; F 2.56; M 3.44; R 2.31; T 2.97; K 2.82; E 3.28; Y 2.19; C 3.24; P 1.58; S 2.52; W 2.96; H 1.97; I 2.71
E2: N 3.28; K 2.29; T 2.64; V 2.69; S 1.47; R 2.85; Q 2.65; M 3.48; W 2.95; P 3.82; L 1.91; Y 2
